Experimental data reported in PMC6555819, “Comprehensive study of nuclear receptor DNA binding provides a revised framework for understanding receptor specificity”.

Legend:
[1] = target: RXRa (Homo sapiens, UniProt P19793); test: no ligand; PBM; 180 nM; PBS pH 7.4, 2% milk, 0.02% Triton X-100, 1 mM DTT, BSA, 0.4 mg/ml salmon testes DNA; settings: tags: His cleaved; chain copies: 2; label: surface-attached array probe
[2] = target: LXRb:RXRa (Homo sapiens, UniProt P55055;P19793 full;full); test: no ligand; PBM; 270 nM : 90 nM RXRa; PBS pH 7.4, 2% milk, 0.02% Triton X-100, 1 mM DTT, BSA, 0.4 mg/ml salmon testes DNA; settings: tags: His kept;His cleaved; copies: 1;1; label: surface-attached array probe
LXRb:RXRa, sequence (P55055 whole entry, chain 1 of 2): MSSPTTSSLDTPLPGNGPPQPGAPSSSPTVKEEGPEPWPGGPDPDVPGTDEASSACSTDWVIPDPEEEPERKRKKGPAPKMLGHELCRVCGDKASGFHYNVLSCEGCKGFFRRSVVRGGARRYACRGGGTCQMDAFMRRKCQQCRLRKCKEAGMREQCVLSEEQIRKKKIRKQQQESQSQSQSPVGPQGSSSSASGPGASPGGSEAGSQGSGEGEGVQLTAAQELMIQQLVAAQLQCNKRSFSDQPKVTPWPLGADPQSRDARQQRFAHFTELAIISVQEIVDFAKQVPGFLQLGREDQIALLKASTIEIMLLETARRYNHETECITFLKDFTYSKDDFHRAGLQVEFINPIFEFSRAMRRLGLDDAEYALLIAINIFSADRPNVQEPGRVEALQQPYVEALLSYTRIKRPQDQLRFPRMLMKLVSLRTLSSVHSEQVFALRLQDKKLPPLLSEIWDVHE
LXRb:RXRa, sequence (P19793 whole entry, chain 2 of 2): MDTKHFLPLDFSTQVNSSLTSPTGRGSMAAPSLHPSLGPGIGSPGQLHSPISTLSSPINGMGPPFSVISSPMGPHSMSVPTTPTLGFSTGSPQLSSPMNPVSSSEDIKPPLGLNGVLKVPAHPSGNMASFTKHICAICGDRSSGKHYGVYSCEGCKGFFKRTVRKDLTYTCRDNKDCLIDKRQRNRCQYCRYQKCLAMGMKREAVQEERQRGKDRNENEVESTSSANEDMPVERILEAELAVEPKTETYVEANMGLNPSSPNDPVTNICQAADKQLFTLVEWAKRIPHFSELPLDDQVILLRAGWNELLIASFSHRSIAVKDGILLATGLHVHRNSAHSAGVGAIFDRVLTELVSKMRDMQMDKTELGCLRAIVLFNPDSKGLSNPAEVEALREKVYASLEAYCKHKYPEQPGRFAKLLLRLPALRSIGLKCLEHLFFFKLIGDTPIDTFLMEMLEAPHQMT
Method in brief: (§1)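 Binding z-scores were set against random background probes. The data came from custom Agilent 4×180K protein-binding microarrays carrying double-stranded probes with 34-nt variable regions, incubated 1 h with ligand-free nuclear receptor dimers. Partner-specific antibodies detected binding, and scanned fluorescence was regression-normalized.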

[3] = target: VDR:RXRa (Homo sapiens, UniProt P11473;P19793 full;full); test: as above; settings: tags: His kept;His cleaved; copies: 1;1; label: surface-attached array probe
VDR:RXRa, sequence (P11473 whole entry, chain 1 of 2): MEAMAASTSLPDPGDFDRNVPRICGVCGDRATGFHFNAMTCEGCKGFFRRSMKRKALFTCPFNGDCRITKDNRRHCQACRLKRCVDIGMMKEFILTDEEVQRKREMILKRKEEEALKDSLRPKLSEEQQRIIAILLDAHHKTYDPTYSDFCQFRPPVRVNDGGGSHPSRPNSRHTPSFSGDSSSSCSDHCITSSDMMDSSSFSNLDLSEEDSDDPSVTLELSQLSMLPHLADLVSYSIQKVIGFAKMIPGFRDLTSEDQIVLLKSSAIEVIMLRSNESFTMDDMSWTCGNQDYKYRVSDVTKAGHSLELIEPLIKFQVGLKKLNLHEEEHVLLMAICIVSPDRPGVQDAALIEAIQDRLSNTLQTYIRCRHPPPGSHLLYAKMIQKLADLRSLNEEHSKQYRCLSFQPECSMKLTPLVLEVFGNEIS
VDR:RXRa, sequence (P19793 whole entry, chain 2 of 2): as the sequence (P19793 whole entry, chain 2 of 2) above
Method in brief: as §1

[4] = target: RARg:RXRa (Homo sapiens, UniProt P13631;P19793 full;full); test: as above; settings: tags: His kept;His cleaved; copies: 1;1; label: surface-attached array probe
RARg:RXRa, sequence (P13631 whole entry, chain 1 of 2): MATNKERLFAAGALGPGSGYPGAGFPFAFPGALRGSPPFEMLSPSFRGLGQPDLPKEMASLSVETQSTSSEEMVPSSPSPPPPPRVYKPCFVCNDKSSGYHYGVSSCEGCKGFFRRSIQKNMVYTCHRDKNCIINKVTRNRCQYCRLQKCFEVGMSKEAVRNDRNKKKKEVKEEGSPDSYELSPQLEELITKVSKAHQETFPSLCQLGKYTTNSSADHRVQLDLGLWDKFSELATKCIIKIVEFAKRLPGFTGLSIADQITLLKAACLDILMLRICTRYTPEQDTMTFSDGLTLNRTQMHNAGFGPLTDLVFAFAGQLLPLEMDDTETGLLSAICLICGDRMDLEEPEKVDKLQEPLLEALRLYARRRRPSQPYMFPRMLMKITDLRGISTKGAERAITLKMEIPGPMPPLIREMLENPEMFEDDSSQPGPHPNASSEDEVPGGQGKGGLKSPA
RARg:RXRa, sequence (P19793 whole entry, chain 2 of 2): as the sequence (P19793 whole entry, chain 2 of 2) above
Method in brief: as §1

[5] = target: PPARa:RXRa (Homo sapiens, UniProt Q07869;P19793 full;full); test: as above; settings: tags: GST kept;His cleaved; copies: 1;1; label: surface-attached array probe
PPARa:RXRa, sequence (Q07869 whole entry, chain 1 of 2): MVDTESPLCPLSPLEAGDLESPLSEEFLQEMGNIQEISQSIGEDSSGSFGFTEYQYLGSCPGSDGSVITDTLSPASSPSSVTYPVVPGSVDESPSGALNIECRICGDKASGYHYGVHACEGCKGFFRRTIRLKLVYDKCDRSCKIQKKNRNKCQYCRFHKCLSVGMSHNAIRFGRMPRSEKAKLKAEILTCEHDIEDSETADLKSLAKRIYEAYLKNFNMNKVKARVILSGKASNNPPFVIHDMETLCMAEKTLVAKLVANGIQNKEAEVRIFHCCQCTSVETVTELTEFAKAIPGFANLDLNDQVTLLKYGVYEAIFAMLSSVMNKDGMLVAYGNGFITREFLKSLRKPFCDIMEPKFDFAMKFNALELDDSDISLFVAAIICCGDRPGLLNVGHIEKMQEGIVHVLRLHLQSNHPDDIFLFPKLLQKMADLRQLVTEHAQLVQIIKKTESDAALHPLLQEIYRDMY
PPARa:RXRa, sequence (P19793 whole entry, chain 2 of 2): as the sequence (P19793 whole entry, chain 2 of 2) above
Method in brief: as §1

[6] = target: FXR:RXRa (Homo sapiens, UniProt Q96RI1;P19793 full;full); test: as above; settings: tags: His kept;His cleaved; copies: 1;1; label: surface-attached array probe
FXR:RXRa, sequence (Q96RI1 whole entry, chain 1 of 2): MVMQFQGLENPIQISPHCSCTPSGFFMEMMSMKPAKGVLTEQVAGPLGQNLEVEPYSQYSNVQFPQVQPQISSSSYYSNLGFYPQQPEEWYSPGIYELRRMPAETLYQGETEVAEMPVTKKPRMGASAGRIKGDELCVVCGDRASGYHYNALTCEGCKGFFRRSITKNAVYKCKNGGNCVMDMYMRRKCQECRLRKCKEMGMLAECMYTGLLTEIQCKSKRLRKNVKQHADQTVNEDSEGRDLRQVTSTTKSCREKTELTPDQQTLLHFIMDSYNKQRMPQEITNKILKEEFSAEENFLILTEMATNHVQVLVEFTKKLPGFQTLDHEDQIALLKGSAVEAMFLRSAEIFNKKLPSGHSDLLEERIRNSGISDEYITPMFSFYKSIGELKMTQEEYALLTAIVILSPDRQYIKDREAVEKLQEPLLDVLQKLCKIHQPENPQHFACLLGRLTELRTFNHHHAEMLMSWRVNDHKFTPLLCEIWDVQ
FXR:RXRa, sequence (P19793 whole entry, chain 2 of 2): as the sequence (P19793 whole entry, chain 2 of 2) above
Method in brief: as §1

[7] = target: RARb:RXRa (Homo sapiens, UniProt P10826;P19793 full;full); test: as above; settings: tags: His kept;His cleaved; copies: 1;1; label: surface-attached array probe
RARb:RXRa, sequence (P10826 whole entry, chain 1 of 2): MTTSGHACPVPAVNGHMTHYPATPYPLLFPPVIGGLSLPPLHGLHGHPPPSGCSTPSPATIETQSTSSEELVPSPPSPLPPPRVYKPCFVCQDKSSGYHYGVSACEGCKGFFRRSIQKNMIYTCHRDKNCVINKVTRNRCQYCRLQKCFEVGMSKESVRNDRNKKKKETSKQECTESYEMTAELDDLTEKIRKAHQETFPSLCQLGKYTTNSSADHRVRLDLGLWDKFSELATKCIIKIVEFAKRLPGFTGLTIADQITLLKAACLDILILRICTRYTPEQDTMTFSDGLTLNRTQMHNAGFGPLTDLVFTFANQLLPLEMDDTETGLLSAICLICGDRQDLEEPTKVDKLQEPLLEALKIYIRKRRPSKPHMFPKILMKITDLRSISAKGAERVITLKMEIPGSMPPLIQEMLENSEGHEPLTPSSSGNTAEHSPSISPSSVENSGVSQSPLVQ
RARb:RXRa, sequence (P19793 whole entry, chain 2 of 2): as the sequence (P19793 whole entry, chain 2 of 2) above
Method in brief: as §1

RXRa, sequence (P19793 whole entry): as the sequence (P19793 whole entry, chain 2 of 2) above

B1: NRC3_wobSeed130_DR5_T12G_o1 (dsDNA)
DNA 1: GCCTCGAAAGGGCGTGCTCAGGTGAGTATACCAAACGCGATTGACAGCGTAGAATGAAGG
DNA 2: CCTTCATTCTACGCTGTCAATCGCGTTTGGTATACTCACCTGAGCACGCCCTTTCGAGGC
binding signal [1]: 0.33 PBM z-score against 500 random probes | binding signal [2]: 0.29 PBM z-score against 500 random probes

B2: NRC3_wobSeed27_DR1_G24A_o1 (dsDNA)
DNA 1: GCACTCGGAGGACAAAGGTCAGAACTACGCCAGTGAGCGATTGACAGCGTAGAATGAAGG
DNA 2: CCTTCATTCTACGCTGTCAATCGCTCACTGGCGTAGTTCTGACCTTTGTCCTCCGAGTGC
binding signal [3]: 3.2 PBM z-score against 500 random probes | binding signal [2]: 3.26 PBM z-score against 500 random probes

B3: NRC3_random_hg19_110_o1 (dsDNA)
DNA 1: GCTGCTGATTCATAGCTTGTAACTTCGTGTTCTTTAGCGATTGACAGCGTAGAATGAAGG
DNA 2: CCTTCATTCTACGCTGTCAATCGCTAAAGAACACGAAGTTACAAGCTATGAATCAGCAGC
binding signal [2]: -0.27 PBM z-score against 500 random probes | binding signal [4]: -0.76 PBM z-score against 500 random probes

B4: NRC3_wobSeed100_DR4_T22G_o1 (dsDNA)
DNA 1: GCCCTACTGGGCCACGAAAGGGCATTGATTCAGTGAGCGATTGACAGCGTAGAATGAAGG
DNA 2: CCTTCATTCTACGCTGTCAATCGCTCACTGAATCAATGCCCTTTCGTGGCCCAGTAGGGC
binding signal [3]: 0.11 PBM z-score against 500 random probes | binding signal [2]: 0.15 PBM z-score against 500 random probes

B5: NRC3_random_hg19_151_o1 (dsDNA)
DNA 1: GCCCCAATCTACTAGAAACACTTCCTGGAGAACCCGGCGATTGACAGCGTAGAATGAAGG
DNA 2: CCTTCATTCTACGCTGTCAATCGCCGGGTTCTCCAGGAAGTGTTTCTAGTAGATTGGGGC
binding signal [2]: 0.38 PBM z-score against 500 random probes | binding signal [4]: -0.01 PBM z-score against 500 random probes

B6: NRC3_random_hg19_262_o1 (dsDNA)
DNA 1: GCGACTAATGCTTACCTTTAGAAAGTGCAAGTGAATGCGATTGACAGCGTAGAATGAAGG
DNA 2: CCTTCATTCTACGCTGTCAATCGCATTCACTTGCACTTTCTAAAGGTAAGCATTAGTCGC
binding signal [5]: 0.36 PBM z-score against 500 random probes | binding signal [2]: 0.24 PBM z-score against 500 random probes | binding signal [6]: 0.19 PBM z-score against 500 random probes

B7: NRC3_random_hg19_18_o1 (dsDNA)
DNA 1: GCATACACTTCTGGAGGCCAGAGGTCTGAAATCAAGGCGATTGACAGCGTAGAATGAAGG
DNA 2: CCTTCATTCTACGCTGTCAATCGCCTTGATTTCAGACCTCTGGCCTCCAGAAGTGTATGC
binding signal [7]: 0.42 PBM z-score against 500 random probes | binding signal [2]: -0.22 PBM z-score against 500 random probes

B8: NRC3_wobSeed86_DR3_o1 (dsDNA)
DNA 1: GCGCTGCTAGGTCAGGTTGGTCAGCTAACGGGTACGGCGATTGACAGCGTAGAATGAAGG
DNA 2: CCTTCATTCTACGCTGTCAATCGCCGTACCCGTTAGCTGACCAACCTGACCTAGCAGCGC
binding signal [3]: 0.5 PBM z-score against 500 random probes | binding signal [2]: 0.46 PBM z-score against 500 random probes

B9: NRC3_random_hg19_495_o1 (dsDNA)
DNA 1: GCGCACCATCTGTGAGAAAGTAGCCCTTCACCAAACGCGATTGACAGCGTAGAATGAAGG
DNA 2: CCTTCATTCTACGCTGTCAATCGCGTTTGGTGAAGGGCTACTTTCTCACAGATGGTGCGC
binding signal [2]: -0.24 PBM z-score against 500 random probes | binding signal [6]: -0.51 PBM z-score against 500 random probes

B10: NRC3_random_hg19_100_o1 (dsDNA)
DNA 1: GCGAGTTTGAGACCAGCCTGGCCAACATGGCAAGAGGCGATTGACAGCGTAGAATGAAGG
DNA 2: CCTTCATTCTACGCTGTCAATCGCCTCTTGCCATGTTGGCCAGGCTGGTCTCAAACTCGC
binding signal [2]: -1.11 PBM z-score against 500 random probes | binding signal [6]: -0.7 PBM z-score against 500 random probes

B11: NRC3_random_hg19_183_o1 (dsDNA)
DNA 1: GCGAGGACAGAGTAGATCAACCTTTCCTACCTCTAAGCGATTGACAGCGTAGAATGAAGG
DNA 2: CCTTCATTCTACGCTGTCAATCGCTTAGAGGTAGGAAAGGTTGATCTACTCTGTCCTCGC
binding signal [3]: 0.02 PBM z-score against 500 random probes | binding signal [2]: -0.11 PBM z-score against 500 random probes

B12: NRC3_random_hg19_373_o1 (dsDNA)
DNA 1: GCTGCCACAGAGGATACTGTGACGTTATGCATCACTGCGATTGACAGCGTAGAATGAAGG
DNA 2: CCTTCATTCTACGCTGTCAATCGCAGTGATGCATAACGTCACAGTATCCTCTGTGGCAGC
binding signal [3]: -0.23 PBM z-score against 500 random probes | binding signal [2]: -0.59 PBM z-score against 500 random probes

B13: NRC3_wobSeed45_DR1_A14T_o1 (dsDNA)
DNA 1: GCTGTCAAAGTTCTAAGGTAACGTAAGTATCCACACGCGATTGACAGCGTAGAATGAAGG
DNA 2: CCTTCATTCTACGCTGTCAATCGCGTGTGGATACTTACGTTACCTTAGAACTTTGACAGC
binding signal [1]: 0.38 PBM z-score against 500 random probes | binding signal [2]: 0.4 PBM z-score against 500 random probes | binding signal [4]: 0.41 PBM z-score against 500 random probes

B14: NRC3_random_hg19_348_o1 (dsDNA)
DNA 1: GCGGAGCAGTCTGCTTTCACGCAGCCTGCTGGGCACGCGATTGACAGCGTAGAATGAAGG
DNA 2: CCTTCATTCTACGCTGTCAATCGCGTGCCCAGCAGGCTGCGTGAAAGCAGACTGCTCCGC
binding signal [7]: -2.02 PBM z-score against 500 random probes | binding signal [2]: -1.82 PBM z-score against 500 random probes

B15: NRC3_wobSeed21_DR0_C21T_o1 (dsDNA)
DNA 1: GCCGTCAAAGTTCAAGGTAATGTAACAGAAAGCAGCGCGATTGACAGCGTAGAATGAAGG
DNA 2: CCTTCATTCTACGCTGTCAATCGCGCTGCTTTCTGTTACATTACCTTGAACTTTGACGGC
binding signal [3]: 3.72 PBM z-score against 500 random probes | binding signal [2]: 3.22 PBM z-score against 500 random probes

B16: NRC3_random_hg19_165_o1 (dsDNA)
DNA 1: GCTGAGTCCCTGCACTAGTCGGTTTGAGCTGCTTGTGCGATTGACAGCGTAGAATGAAGG
DNA 2: CCTTCATTCTACGCTGTCAATCGCACAAGCAGCTCAAACCGACTAGTGCAGGGACTCAGC
binding signal [1]: -1.2 PBM z-score against 500 random probes | binding signal [2]: -0.66 PBM z-score against 500 random probes

B17: NRC3_random_hg19_225_o1 (dsDNA)
DNA 1: GCTGGATGAAGTGGAAGAACAAGGCTATTCTTTACTGCGATTGACAGCGTAGAATGAAGG
DNA 2: CCTTCATTCTACGCTGTCAATCGCAGTAAAGAATAGCCTTGTTCTTCCACTTCATCCAGC
binding signal [1]: -0.39 PBM z-score against 500 random probes | binding signal [2]: -0.34 PBM z-score against 500 random probes | binding signal [4]: 0.01 PBM z-score against 500 random probes

B18: NRC3_wobSeed29_DR1_T22A_o1 (dsDNA)
DNA 1: GCGCTTACGGGTCAAAGGTTAAAGCATGAATAGAATGCGATTGACAGCGTAGAATGAAGG
DNA 2: CCTTCATTCTACGCTGTCAATCGCATTCTATTCATGCTTTAACCTTTGACCCGTAAGCGC
binding signal [1]: 10 PBM z-score against 500 random probes | binding signal [2]: 6.19 PBM z-score against 500 random probes

B19: NRC3_wobSeed37_DR1_T23C_o1 (dsDNA)
DNA 1: GCCGTCCAAGGTCAAAGGTCAGCGAAGAGATGACGGGCGATTGACAGCGTAGAATGAAGG
DNA 2: CCTTCATTCTACGCTGTCAATCGCCCGTCATCTCTTCGCTGACCTTTGACCTTGGACGGC
binding signal [7]: 6.23 PBM z-score against 500 random probes | binding signal [2]: 7.14 PBM z-score against 500 random probes

B20: NRC3_wobSeed98_DR4_C23A_o1 (dsDNA)
DNA 1: GCACTAGTTGGTCAGCTGAGGTAACACACAATTCGGGCGATTGACAGCGTAGAATGAAGG
DNA 2: CCTTCATTCTACGCTGTCAATCGCCCGAATTGTGTGTTACCTCAGCTGACCAACTAGTGC
binding signal [1]: 0.48 PBM z-score against 500 random probes | binding signal [2]: 0.34 PBM z-score against 500 random probes

B21: NRC3_wobSeed10_DR0_G17T_o1 (dsDNA)
DNA 1: GCATCGAAAGGTCGAGTTGAGTATAGAGAAAGGGAAGCGATTGACAGCGTAGAATGAAGG
DNA 2: CCTTCATTCTACGCTGTCAATCGCTTCCCTTTCTCTATACTCAACTCGACCTTTCGATGC
binding signal [1]: 4.1 PBM z-score against 500 random probes | binding signal [2]: 3.11 PBM z-score against 500 random probes

B22: NRC3_random_hg19_480_o1 (dsDNA)
DNA 1: GCGAGAATGGTCAGTACATTCAACCATGAATTCAAGGCGATTGACAGCGTAGAATGAAGG
DNA 2: CCTTCATTCTACGCTGTCAATCGCCTTGAATTCATGGTTGAATGTACTGACCATTCTCGC
binding signal [3]: 0.03 PBM z-score against 500 random probes | binding signal [2]: -0.32 PBM z-score against 500 random probes

B23: NRC3_random_hg19_43_o1 (dsDNA)
DNA 1: GCAGGACCTCTTCAAGGAGAACTACAAACCACTGCTGCGATTGACAGCGTAGAATGAAGG
DNA 2: CCTTCATTCTACGCTGTCAATCGCAGCAGTGGTTTGTAGTTCTCCTTGAAGAGGTCCTGC
binding signal [7]: -0.5 PBM z-score against 500 random probes | binding signal [5]: -0.17 PBM z-score against 500 random probes | binding signal [2]: -0.03 PBM z-score against 500 random probes

B24: NRC3_random_hg19_352_o1 (dsDNA)
DNA 1: GCGAGATGCAGCCAACCTGTAGAGATCCTGTGGAGAGCGATTGACAGCGTAGAATGAAGG
DNA 2: CCTTCATTCTACGCTGTCAATCGCTCTCCACAGGATCTCTACAGGTTGGCTGCATCTCGC
binding signal [5]: -0.6 PBM z-score against 500 random probes | binding signal [2]: -0.67 PBM z-score against 500 random probes | binding signal [6]: -0.39 PBM z-score against 500 random probes | binding signal [4]: -0.52 PBM z-score against 500 random probes

B25: NRC3_wobSeed74_DR3_T21G_o1 (dsDNA)
DNA 1: GCTCTAGTTGGTCACGGAGGGCACACACGACGGGTAGCGATTGACAGCGTAGAATGAAGG
DNA 2: CCTTCATTCTACGCTGTCAATCGCTACCCGTCGTGTGTGCCCTCCGTGACCAACTAGAGC
binding signal [2]: 0.5 PBM z-score against 500 random probes | binding signal [6]: 0.34 PBM z-score against 500 random probes
